Test results published in the Human Domainome abundance scans (Beltran et al. 2025).
± gives the uncertainty stated by the source.

B1: POU domain, class 5, transcription factor 1, residues 134 to 212; numbered along this chain, Q01860 (parent)
chain: EESQDIKALQKELEQFAKLLKQKRITLGYTQADVGLTLGVLFGKVFSQTTICRFEALQLSFKNMCKLRPLLQKWVEEAD

Variants of: B1
Test: abundance fitness (aPCA) (normalised: wild type 0, dead -1); higher = more abundant; growth selection in yeast, the domain comes from the species named
Conditions: Homo sapiens

Abundance fitness of substitutions, site by site:
K11: L -0.153 ± 0.1; C -0.369 ± 0.27; Y 0.067 ± 0.21; N 0.048 ± 0.28; Q 0.057 ± 0.17; I 0.062 ± 0.33; V -0.21 ± 0.12; D 0.168 ± 0.35; T -0.388 ± 0.3; G -0.168 ± 0.089; P 0.23 ± 0.39; M 0.076 ± 0.14; W -0.198 ± 0.13; S 0.019 ± 0.12; E -0.031 ± 0.11; A -0.201 ± 0.14
K23: R 0.059 ± 0.12; T -0.384 ± 0.27; L -0.608 ± 0.37; A -0.608 ± 0.33; Q -0.256 ± 0.46
K18: A 0.021 ± 0.11; R -0.222 ± 0.099; L -0.091 ± 0.11; T 0.074 ± 0.13; M 0.052 ± 0.15; V -0.466 ± 0.16; E -0.415 ± 0.2; Q 0.029 ± 0.19; H -0.523 ± 0.48; F -0.268 ± 0.44; W -0.19 ± 0.18; G -0.147 ± 0.12; S 0.192 ± 0.13
R24: A -0.859 ± 0.47; Q -0.391 ± 0.44; S -0.361 ± 0.18; V -0.068 ± 0.22
Q4: M -0.118 ± 0.18; V -0.061 ± 0.088; P -0.135 ± 0.12; C -0.211 ± 0.22; I -0.309 ± 0.24; Y 0.291 ± 0.19; N -0.253 ± 0.32; E -0.13 ± 0.1; S -0.258 ± 0.13; F -0.059 ± 0.24; L -0.067 ± 0.09; G -0.064 ± 0.07; A -0.097 ± 0.081; T 0.005 ± 0.11; H -0.051 ± 0.4; D 0.046 ± 0.14; K -0.011 ± 0.16
K21: R -0.191 ± 0.12; S -0.189 ± 0.14; Q -0.2 ± 0.27; V -0.373 ± 0.28; P -0.353 ± 0.3; A -0.392 ± 0.19; G -0.707 ± 0.18
L9: D -0.385 ± 0.2; H -0.215 ± 0.32; Y -0.164 ± 0.24; K 0.28 ± 0.11; C -0.123 ± 0.13; N -0.086 ± 0.22; W -0.254 ± 0.087; G -0.127 ± 0.07; T -0.171 ± 0.18; E 0.017 ± 0.089; S 0.136 ± 0.078; V 0.044 ± 0.076; F -0.316 ± 0.29; P 0.195 ± 0.12; R -0.023 ± 0.067; A -0.066 ± 0.088; I -0.331 ± 0.4; Q 0.106 ± 0.12
E2: G 0.211 ± 0.26
T26: R 0.129 ± 0.14; I -0.313 ± 0.48; Q -0.123 ± 0.39; L 0.004 ± 0.25; G 0.071 ± 0.12; A 0.202 ± 0.15; K -0.414 ± 0.36; V -0.212 ± 0.19; S 0.329 ± 0.18; C -0.059 ± 0.46; E 0.04 ± 0.27; M -0.256 ± 0.42; N 0.268 ± 0.45
Q22: M -0.189 ± 0.45; H 0.027 ± 0.29; A -0.151 ± 0.3; S 0.268 ± 0.14; F 0.56 ± 0.4; R -0.092 ± 0.2
G28: H 0.386 ± 0.21; N -0.34 ± 0.42; Q -0.389 ± 0.2; S -0.839 ± 0.32; T -0.738 ± 0.37; A -1.06 ± 0.3; V -0.787 ± 0.19; M -0.465 ± 0.24; R -0.555 ± 0.13; W -0.813 ± 0.33; K -0.569 ± 0.34; L -0.76 ± 0.22
S3: V 0.323 ± 0.24; L 0.163 ± 0.38; G 0.131 ± 0.17; F -0.082 ± 0.27
A8: E -0.08 ± 0.4; C 0.222 ± 0.21; G -0.148 ± 0.14; V 0.083 ± 0.25; Q 0.182 ± 0.3; L -0.318 ± 0.38; P 0.697 ± 0.5; S 0.171 ± 0.21; T 0.429 ± 0.3
L20: V -0.056 ± 0.12; G -0.801 ± 0.23; E -0.313 ± 0.24; R -0.299 ± 0.14; S -0.399 ± 0.25; P -0.303 ± 0.24; A -0.704 ± 0.27; W -0.741 ± 0.38; M -0.452 ± 0.39
F16: E -0.438 ± 0.39; P -0.023 ± 0.34; W -0.341 ± 0.3; A -0.191 ± 0.32; G -0.522 ± 0.23; L -0.133 ± 0.16; R -0.394 ± 0.15; C -0.23 ± 0.21
Q31: G -0.402 ± 0.16; K -0.557 ± 0.34; F -0.009 ± 0.29; L -0.093 ± 0.2; H -0.108 ± 0.37; D -0.126 ± 0.33; A -0.103 ± 0.11; E 0.276 ± 0.1; C 0.266 ± 0.18
D5: T -0.141 ± 0.4; G -0.331 ± 0.2; V -0.018 ± 0.41; A -0.126 ± 0.21; N 0.092 ± 0.41; E -0.343 ± 0.42; C 0.057 ± 0.35; S -0.191 ± 0.41; P 0.062 ± 0.42
L19: Q 0.04 ± 0.36; G -0.063 ± 0.13; K 0.373 ± 0.26; W -0.181 ± 0.16; R -0.284 ± 0.15; E -0.447 ± 0.32; T -0.49 ± 0.32; C 0.164 ± 0.22; A -0.49 ± 0.35
K7: Y -0.12 ± 0.14; G -0.193 ± 0.055; N -0.022 ± 0.14; E -0.025 ± 0.075; F -0.257 ± 0.13; W -0.173 ± 0.074; T -0.162 ± 0.1; V -0.085 ± 0.065; Q -0.142 ± 0.1; A -0.007 ± 0.062; P -0.124 ± 0.099; S -0.05 ± 0.063; M -0.319 ± 0.12; C -0.132 ± 0.086; L -0.073 ± 0.061; D 0.061 ± 0.098; H -0.193 ± 0.15; I -0.391 ± 0.22
L27: P -0.274 ± 0.2; G -0.387 ± 0.1; D -0.185 ± 0.25; K -0.31 ± 0.19; H -0.387 ± 0.41; N -0.429 ± 0.36; A -0.648 ± 0.21; Q -0.602 ± 0.24; S -0.724 ± 0.25; C 0.039 ± 0.19; R -0.345 ± 0.1; Y -0.358 ± 0.4; I -0.051 ± 0.49; M -0.188 ± 0.19; V -0.588 ± 0.14; E -0.842 ± 0.28; W -0.185 ± 0.11
Y29: H 0.148 ± 0.21; D -0.422 ± 0.31; C -0.64 ± 0.32; M 0.18 ± 0.12; Q 0.068 ± 0.19; V -0.216 ± 0.089; L -0.055 ± 0.094; S -0.717 ± 0.21; R -0.383 ± 0.096; F -0.761 ± 0.47; G -0.56 ± 0.14; W -0.472 ± 0.18; I -0.771 ± 0.47; P -0.407 ± 0.24; A -0.41 ± 0.13
Q10: T -0.184 ± 0.18; M -0.063 ± 0.16; W 0.305 ± 0.084; R 0.137 ± 0.063; D -0.128 ± 0.18; E -0.354 ± 0.16; F 0.117 ± 0.32; Y 0.042 ± 0.33; S -0.111 ± 0.097; H -0.31 ± 0.49; P -0.214 ± 0.17; C -0.477 ± 0.29; L -0.214 ± 0.11; N -0.086 ± 0.24; I -0.373 ± 0.34; G -0.239 ± 0.082; A -0.169 ± 0.12
E12: W -0.226 ± 0.1; S -0.094 ± 0.11; L -0.312 ± 0.12; Y -0.4 ± 0.31; F 0.341 ± 0.3; M -0.38 ± 0.24; I -0.112 ± 0.29; P -0.473 ± 0.42; K 0.254 ± 0.12; R -0.07 ± 0.071; A -0.345 ± 0.14; Q -0.185 ± 0.17; D -0.357 ± 0.47; H -0.051 ± 0.4; G -0.35 ± 0.084; T -0.405 ± 0.17; V -0.065 ± 0.097
L13: Y -0.527 ± 0.24; M 0.021 ± 0.17; G -0.708 ± 0.23; Q -0.641 ± 0.34; F -0.149 ± 0.14; E -0.484 ± 0.39; N -0.252 ± 0.19; I 0.099 ± 0.27; H -0.176 ± 0.19; C -0.806 ± 0.31; A -0.526 ± 0.22; R -1.06 ± 0.35; W -0.58 ± 0.19; S -0.743 ± 0.25; V -0.228 ± 0.14; P -0.306 ± 0.45
I6: M 0.1 ± 0.12; P -0.015 ± 0.14; K 0.359 ± 0.12; N -0.082 ± 0.23; D 0.122 ± 0.16; V -0.749 ± 0.2; T 0.195 ± 0.12; L -0.143 ± 0.1; G -0.122 ± 0.077; A 0.005 ± 0.085; E -0.452 ± 0.17; F 0.052 ± 0.27; W -0.351 ± 0.17; S -0.054 ± 0.14; Q 0.063 ± 0.14; C -0.417 ± 0.43
I25: L 0.249 ± 0.16; E -0.207 ± 0.38; V 0.264 ± 0.16; R -0.078 ± 0.24; K -0.131 ± 0.47
Q15: E 0.07 ± 0.15; S -0.094 ± 0.12; G 0.008 ± 0.086; T -0.329 ± 0.23; D 0.089 ± 0.18; L -0.259 ± 0.1; W -0.442 ± 0.13; C -0.218 ± 0.2; K -0.631 ± 0.43; M -0.184 ± 0.17; A 0.127 ± 0.12; H -0.27 ± 0.3; R -0.181 ± 0.083
A17: G 0.11 ± 0.13; T 0.228 ± 0.38; R -0.768 ± 0.32; V -0.145 ± 0.42; P -0.357 ± 0.45
E14: W -0.367 ± 0.15; R 0.063 ± 0.081; Y 0.076 ± 0.2; I 0.14 ± 0.15; C -0.476 ± 0.24; M -0.307 ± 0.22; D -0.533 ± 0.39; K 0.267 ± 0.14; F -0.056 ± 0.14; H -0.037 ± 0.16; T -0.352 ± 0.16; P -0.613 ± 0.29; G -0.033 ± 0.13; S -0.358 ± 0.13; L -0.168 ± 0.11; Q -0.05 ± 0.14; A 0.143 ± 0.085
T30: M -0.526 ± 0.25; E -1.06 ± 0.48; A -0.667 ± 0.18; H -0.437 ± 0.44; R -0.249 ± 0.078; L -0.853 ± 0.27; Q -0.664 ± 0.3; S 0.082 ± 0.085; V -0.392 ± 0.12
